# Measured values from article PMC11742427, “Structural basis for metal ion transport by the human SLC11 proteins DMT1 and NRAMP1” (Nature Communications, 2025).
# T1: human DMT1 (SLC11A2) (human, UniProt P49281-3 2-590, chemically biotinylated (EZ-Link NHS-PEG4-Biotinylation kit) for the SPR experiments)
# T1 construct: human DMT1 (SLC11A2), UniProt P49281-3; Tags follow an HRV-3C site and were removed with HRV 3C protease; The same construct was used without biotin for the SEC of the complexes; source: HEK293S GnTI- cells, transient transfection, purified in DDM/CHS (StrepTactin, SEC); not shown: Myc, C-terminal, cleaved
# T1 sequence: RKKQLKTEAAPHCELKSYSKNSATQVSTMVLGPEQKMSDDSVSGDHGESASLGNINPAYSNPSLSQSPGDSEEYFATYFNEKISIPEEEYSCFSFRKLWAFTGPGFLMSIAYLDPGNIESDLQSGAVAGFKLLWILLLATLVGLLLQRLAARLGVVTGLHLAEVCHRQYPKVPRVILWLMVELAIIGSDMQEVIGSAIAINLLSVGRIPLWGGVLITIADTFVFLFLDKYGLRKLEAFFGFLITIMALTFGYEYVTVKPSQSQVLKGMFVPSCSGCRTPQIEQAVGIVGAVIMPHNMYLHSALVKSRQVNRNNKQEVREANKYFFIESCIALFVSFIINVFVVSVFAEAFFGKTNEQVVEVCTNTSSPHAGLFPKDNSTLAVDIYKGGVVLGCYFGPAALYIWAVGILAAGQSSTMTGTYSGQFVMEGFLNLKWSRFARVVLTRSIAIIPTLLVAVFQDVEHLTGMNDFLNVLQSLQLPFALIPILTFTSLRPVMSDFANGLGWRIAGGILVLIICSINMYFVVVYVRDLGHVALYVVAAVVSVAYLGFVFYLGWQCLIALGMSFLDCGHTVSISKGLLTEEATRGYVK
# B1: sybody Sb1^DMT1 (VHH)
# VHH: QVQLVESGGGLVQAGGSLRLSCAASGFPVSRSEMYWYRQAPGKEREWVAAIHSIGWNTRYADSVKGRFTISRDNAKNTVYLQMNSLKPEDTAVYYCNVKDAGWFWTNYDYWGQGTQVTVSA
# notes: synthetic nanobody (sybody) selected against DMT1; the tags are surmised from the vector
# B2: sybody Sb2^DMT1 (VHH)
# VHH: QVQLVESGGGLVQAGGSLRLSCAASGFPVNAAWMHWYRQAPGKEREWVAAIRSAGHLTEYADSVKGRFTISRDNAKNTVYLQMNNLKPEDTAVYYCWVYVGESYHGQGTQVTVSA
# notes: synthetic nanobody (sybody) selected against DMT1; the tags are surmised from the vector; Not resolved in the maps of PDB 9F6N and 9F6O
# B3: Sb1^DMT1 (sybody, synthetic nanobody selected against DMT1) (VHH)
# VHH: B1 VHH
# notes: Selected from synthetic nanobody (sybody) libraries; The sybody model PDB 7P5V was only the starting model for building Sb1, not Sb1 itself
# Experiments:
# [1] = molecular target: T1, human DMT1 (SLC11A2); experiment: SPR; chemically biotinylated DMT1 or NRAMP1 immobilised on a SAD200M chip (about 900 RU); sybodies injected at 7.8-500 nM, 10 °C, 30 µl/min; 10 mM HEPES pH 7.4, 150 mM NaCl, 0.04% DDM, 0.004% CHS, 0.1% BSA; fit to a 1:1 binding model; conditions: both partners purified
# [2] = molecular target: T2, human DMT1 (SLC11A2) (Homo sapiens, DMT1 isoform 3 (P49281-3), UniProt P49281-3, chemically biotinylated (EZ-Link NHS-PEG4-Biotinylation kit) for the SPR assay; not for cryo-EM); experiment: SPR; chemically biotinylated DMT1 or NRAMP1 immobilised on a SAD200M chip (~900 RU); sybodies injected at 7.8-500 nM, 10 °C, 30 µl/min; 10 mM HEPES pH 7.4, 150 mM NaCl, 0.04% DDM, 0.004% CHS, 0.1% BSA; single-site binding model; conditions: both partners purified
# T2 construct: human DMT1 (SLC11A2), UniProt identifier P49281-3, codon-optimised synthetic gene in pcDXC3MS; The C-terminal HRV-3C site was cut, so residues of the cleavage site are left on the C-terminus; One construct was used for SPR (biotinylated, immobilised) and cryo-EM; source: HEK293S GnTI- cells, transient transfection, purified in DDM/CHS (StrepTactin, HRV 3C cleavage, SEC); not shown: Myc, …
Binder,Kd [1] [nM],Kd [2] [nM]
B1,55,
B2,48,
B3,,~50
